In PMC3422223 (PLoS ONE, 2012):

Experiments:
[1] = target: T1, CCL5 (Homo sapiens, UniProt P13501, biotin (sulfo-NHS-LC-biotin) in the Biacore and streptavidin-plate ELISA experiments; not biotinylated where coated directly); assay: cell-based or functional assay
[2] = target: T2, CCL3 (Homo sapiens, UniProt P10147, biotin (sulfo-NHS-LC-biotin) in the Biacore and streptavidin-plate ELISA experiments; not biotinylated where coated directly); assay: cell-based or functional assay
[3] = target: T3, CCL4 (Homo sapiens, UniProt P13236, biotin (sulfo-NHS-LC-biotin) in the Biacore and streptavidin-plate ELISA experiments; not biotinylated where coated directly); assay: cell-based or functional assay
[4] = target: T1, CCL5; assay: SPR; Biacore 2000; biotinylated CCL3, CCL4, CCL5 immobilised on a streptavidin chip (~100 RU); Fabs flowed over at 500 pM to 1 µM; regeneration 10 mM glycine pH 1.5; triplicate; 1:1 Langmuir fit, murine and humanized 18V4F Fabs fit to a steady state model; conditions: both partners purified
[5] = target: T2, CCL3; assay: as above; conditions: both partners purified
[6] = target: T3, CCL4; assay: as above; conditions: both partners purified

T3 sequence (P13236 24-92): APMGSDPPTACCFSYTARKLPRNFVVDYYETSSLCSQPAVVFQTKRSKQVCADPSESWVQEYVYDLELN
T1 sequence (P13501 24-91): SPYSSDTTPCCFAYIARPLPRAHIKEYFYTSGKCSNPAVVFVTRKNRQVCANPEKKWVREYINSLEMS
T2 sequence (P10147 24-92): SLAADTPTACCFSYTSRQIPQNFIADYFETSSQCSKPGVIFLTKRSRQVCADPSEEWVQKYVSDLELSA

Binder | IC50 of inhibition of chemotaxis of CCR5-transfected Ba/F3 cells to 5 ng/mL CCL5 (blocks CCL5 with CCR5) [1] | IC50 of inhibition of chemotaxis of CCR5-transfected Ba/F3 cells to 5 ng/mL CCL3 (blocks CCL3 with CCR5) [2] | IC50 of inhibition of chemotaxis of CCR5-transfected Ba/F3 cells to 5 ng/mL CCL4 (blocks CCL4 with CCR5) [3] | Kd [4] | Kd [5] | Kd [6] | koff [5] | kon [5] | koff [6] | kon [6] | koff [4] | kon [4]
18V4F hybridoma antibody (murine IgG2a/lambda) (antibody, V domains shown) VH: QVQLKESGPGLVAPSQSLSITCTVSGFSLTGYGIHWVRQPPGKGLEWLGVIWPGGGTNYNSALMSRLSISKDNSKSQVFLKMNSLQTDDTAMYYCARGPLITTEVSMDYWGQGTSVTVSS VL: QAVVTQESALTTSPGETVTLTCRSNTGAVTTSNYANWVQEKPDHLFTGLIGGTNNRAPGVPARFSGSLIGDKAALTITGAQTEDEAIYFCALWYSNHWVFGGGTKLTVL | > 1000 nM | 196 nM | 185 nM |  |  |  |  |  |  |  |  | 
murine 18V4F Fab (Fab, V domains shown, also called Mu-18V4F) VH: QVQLKESGPGLVAPSQSLSITCTVSGFSLTGYGIHWVRQPPGKGLEWLGVIWPGGGTNYNSALMSRLSISKDNSKSQVFLKMNSLQTDDTAMYYCARGPLITTEVSMDYWGQGTSVTVSS VL: QAVVTQESALTTSPGETVTLTCRSNTGAVTTSNYANWVQEKPDHLFTGLIGGTNNRAPGVPARFSGSLIGDKAALTITGAQTEDEAIYFCALWYSNHWVFGGGTKLTVL |  |  |  | 50.3 nM | 209 nM | 103 nM |  |  |  |  |  | 
18V4F Fab variant d7 (Fab, V domains shown) VH: EVQLVESGGGLVQPGGSLRLSCAASGFSLYDEGAHWVRQAPGKGLEWVGVIWPGGGTNYNSALMSRFTISKDNSKNTVYLQMNSLRAEDTAVYYCARGPLITTEVSMDYWGQGTLVTVSS VL: SAEVTQPPSVSVSPGQTARITCSSNTGAVTTSNYANWVQQKPGQAPVGLIGGTNERPSGIPERFSGSSSGNTATLTISGAQAEDEADYYCALWYSNHWVFGGGTKLTVL | 4.1 nM | 18 nM | 0.6 nM |  | 35 nM | 7.3 nM | 0.0033 s⁻¹ | 110000 M⁻¹ s⁻¹ | 0.0004 s⁻¹ | 60000 M⁻¹ s⁻¹ |  | 
d5d7 Fab (Fab, V domains shown, also called 18V4F Fab variant d5d7; not shown: His6, C-terminal, kept) VH: EVQLVESGGGLVQPGGSLRLSCAASGFSLYDEGAHWVRQAPGKGLEWVGVIWPGGGTNYNSALMSRFTISKDNSKNTVYLQMNSLRAEDTAVYYCARGPLITTEVSMDYWGQGTLVTVSS VL: SAEVTQPPSVSVSPGQTARITCSSNTPLRPYRNYANWVQQKPGQAPVGLIGGTNERPSGIPERFSGSSSGNTATLTISGAQAEDEADYYCALWYSNHWVFGGGTKLTVL | 0.9 nM | 1 nM | 0.2 nM |  | 8.5 nM | 1.8 nM | 0.0054 s⁻¹ | 80000 M⁻¹ s⁻¹ | 0.0036 s⁻¹ | 380000 M⁻¹ s⁻¹ |  | 
18V4F Fab variant d5 (Fab, V domains shown) VH: EVQLVESGGGLVQPGGSLRLSCAASGFSLTGYAMHWVRQAPGKGLEWVGVIWPGGGTNYNSALMSRFTISKDNSKNTVYLQMNSLRAEDTAVYYCARGPLITTEVSMDYWGQGTLVTVSS VL: SAEVTQPPSVSVSPGQTARITCSSNTPLRPYRNYANWVQQKPGQAPVGLIGGTNERPSGIPERFSGSSSGNTATLTISGAQAEDEADYYCALWYSNHWVFGGGTKLTVL | 105 nM | 187 nM | 49 nM | 5.5 nM | 30.4 nM | 15.9 nM | 0.0031 s⁻¹ | 100000 M⁻¹ s⁻¹ | 0.0012 s⁻¹ | 70000 M⁻¹ s⁻¹ | 0.0014 s⁻¹ | 340000 M⁻¹ s⁻¹
humanized 18V4F Fab (Fab, V domains shown, also called Hu-18V4F) VH: EVQLVESGGGLVQPGGSLRLSCAASGFSLTGYAMHWVRQAPGKGLEWVGVIWPGGGTNYNSALMSRFTISKDNSKNTVYLQMNSLRAEDTAVYYCARGPLITTEVSMDYWGQGTLVTVSS VL: SAEVTQPPSVSVSPGQTARITCSSNTGAVTTSNYANWVQQKPGQAPVGLIGGTNERPSGIPERFSGSSSGNTATLTISGAQAEDEADYYCALWYSNHWVFGGGTKLTVL | > 1000 nM | > 1000 nM | > 1000 nM | 187 nM | 272 nM | 251 nM |  |  |  |  |  | 
